In patent US20240002497A1 (Merck Sharp & Dohme, published 2024):

Key:
huNav1.7α + β1-β2-β3 [1] = biological target: T1, huNav1.7α + β1-β2-β3 (human, UniProt Q15858 1-1988; A5A6L6 19-218; O60939 30-215; Q2KI11 23-215); experiment: binding FACS, CHO FlpIn
T1 construct: also called huNav1.7-beta1-beta2-beta3; huNav1.7-β1-β2-β3
Method: (§1) Binding of the ISVDs to cell-expressed Nav1.7α was detected via murine anti-Flag (Sigma, catalog #F1804). Briefly, cells were resuspended in FACS buffer (PBS, 10% FBS, NaN₃) and transferred to a 96-well V-bottom plate at 1×10^5 cells/well. Purified FLAG3-tagged ISVD was diluted in FACS buffer and added to the cells for 30 minutes at 4° C. […] Prior to the read-out, the samples were resuspended in 1 μg/mL propidium iodide (Sigma, catalog #P4170) to exclude dead cells. Between each step, the cells were centrifuged for 5 minutes at 200 grams and washed with 100 μL/well FACS buffer.

rhNav1.7α + β1-β2-β3 = biological target: T2, rhNav1.7α + β1-β2-β3 (rhesus monkey); experiment: binding FACS, CHO FlpIn
T2 construct: also called rhNav1.7-beta1-beta2-beta3; rhNav1.7-β1-β2-β3
Method: as §1

muNav1.7α = biological target: T3, muNav1.7α (murine, UniProt Q62205 1-1984); experiment: binding FACS, HEK JmpIn
T3 construct: HEK JmpIn cells; also called murine Nav1.7α
Method: as §1

huNav1.7α+β1-β2-β3 = biological target: T4, huNav1.7α+β1-β2-β3 (human, UniProt Q15858 1-1988; Q07699 19-218; O60939 30-215; Q9NY72 23-215); experiment: binding FACS, CHO FlpIn cells
T4 construct: 5N11S variant; also called huNav1.7-beta1-beta2-beta3; huNav1.7α+Navβ1-Navβ2-Navβ3
In short: (§2)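 Cells are first suspended in FACS buffer at 1×10^5 per well. Next, FLAG3-tagged ISVD is added for 30 minutes at 4° C, and binding is then detected with murine anti-Flag. Finally, samples go into 1 μg/mL propidium iodide before flow cytometry.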

huNav1.7α + β1 (HEKa/β1) = biological target: T5, huNav1.7α + β1 (HEKa/β1) (human, UniProt Q15858 1-1988; Q07699 19-218); experiment: binding FACS, HEKa/β1 cells
T5 construct: also called HEKa/β1 huNav1.7α
Method: as §1

huNav1.7α + β1-β2-β3 [2] = biological target: T6, huNav1.7α + β1-β2-β3 (human, UniProt Q15858 1-1988; A5A6L6 19-218; O60939 30-215; Q2KI11 23-215); experiment: binding FACS, CHO FlpIn cells
T6 construct: Cell line (CHO FlpIn, HEK FlpIn, transient HEK293T) is named under assay; also called huNav1.7-beta1-beta2-beta3; human Nav1.7α with Navβ1, Navβ2 and Navβ3
In short: as §2

B1: F010301868 (VHH)
VHH: EVQLVESGGGVVQPGGSLRLSCATTSRAFIRDVFTGWYRRVPGKERELVARIYNGGNTNYADFAKGRFTISRDNAKKMVYLQMNSLRPEDTALYYCLFSGTINTGREYRSGDYWGQGTLVTVSS
notes: also called F0103464B09(L11V, S68T, T79Y, R81Q, S82aN, N82bS, K83R, G88A, V89L)
Bmax (huNav1.7α + β1-β2-β3 [1]): 98% | EC50 (huNav1.7α + β1-β2-β3 [1]): 6.3 nM | EC50 (rhNav1.7α + β1-β2-β3): 62 nM | EC50 (muNav1.7α): 11 nM

B2: F010301869 (VHH)
VHH: EVQLVESGGGVVQPGGSLRLSCATTSRAFIRDVFTGWYRRVPGKERELVARIYNGGNTNYADFAKGRFTISRDNAKKTVYLQMNSLRPEDTALYYCLFSGTINTGREYRSGDYWGQGTLVTVSS
notes: also called F0103464B09(L11V, S68T, M77T, T79Y, R81Q, S82aN, N82bS, K83R, G88A, V89L)
Bmax (huNav1.7α + β1-β2-β3 [1]): 100% | EC50 (huNav1.7α + β1-β2-β3 [1]): 7.6 nM | EC50 (rhNav1.7α + β1-β2-β3): 96 nM | EC50 (muNav1.7α): 17 nM

B3: F010301871 (VHH)
VHH: EVQLVESGGGVVQPGGSLRLSCAATSRAFIRDVFTGWYRRVPGKERELVARIYNGGNTNYADFAKGRFTISRDNAKKMVYLQMNSLRPEDTALYYCLFSGTINTGREYRSGDYWGQGTLVTVSS
notes: also called F0103464B09(L11V, T24A, S68T, T79Y, R81Q, S82aN, N82bS, K83R, AG88, V89L)
Bmax (huNav1.7α + β1-β2-β3 [1]): 100% | EC50 (huNav1.7α + β1-β2-β3 [1]): 5.8 nM | EC50 (rhNav1.7α + β1-β2-β3): 37 nM | EC50 (muNav1.7α): 24 nM

B4: F010301872 (VHH)
VHH: EVQLVESGGGVVQPGGSLRLSCATSSRAFIRDVFTGWYRRVPGKERELVARIYNGGNTNYADFAKGRFTISRDNAKKMVYLQMNSLRPEDTALYYCLFSGTINTGREYRSGDYWGQGTLVTVSS
notes: also called F0103464B09(L11V, T25S, S68T, T79Y, R81Q, S82aN, N82bS, K83R, G88A, V89L)
Bmax (huNav1.7α + β1-β2-β3 [1]): 100% | EC50 (huNav1.7α + β1-β2-β3 [1]): 6.8 nM | EC50 (rhNav1.7α + β1-β2-β3): 57 nM | EC50 (muNav1.7α): 21 nM

B5: F010301301 (VHH)
VHH: EVQLVESGGGLVQAGGSLRLSCDASGRILRTGYMRWHRQGAGKQREFVARITDDSATDYADSVKGRFTISRDNAKNTVYLQMNNLNPEDTAVYYCEALVTASVRGGSIHSGTYWGRGTLVTVSS
notes: vs 387G05: I31T
EC50 (huNav1.7α+β1-β2-β3): 7.3 nM

B6: F010301304 (VHH)
VHH: EVQLVESGGGLVQAGGSLRLSCDASGRILRWGYMRWHRQGAGKQREFVARITDDSATDYADSVKGRFTISRDNAKNTVYLQMNNLNPEDTAVYYCEALVTASVRGGSIHSGTYWGRGTLVTVSS
notes: vs 387G05: I31W
EC50 (huNav1.7α+β1-β2-β3): 5.7 nM

B7: F010301309 (VHH)
VHH: EVQLVESGGGLVQAGGSLRLSCDASGRIVRIGYMRWHRQGAGKQREFVARITDDSATDYADSVKGRFTISRDNAKNTVYLQMNNLNPEDTAVYYCEALVTASVRGGSIHSGTYWGRGTLVTVSS
notes: vs 387G05: L29V
EC50 (huNav1.7α+β1-β2-β3): 5.4 nM

B8: F010301313 (VHH)
VHH: EVQLVESGGGLVQAGGSLRLSCDASGRILRIGYMKWHRQGAGKQREFVARITDDSATDYADSVKGRFTISRDNAKNTVYLQMNNLNPEDTAVYYCEALVTASVRGGSIHSGTYWGRGTLVTVSS
notes: vs 387G05: R35K
EC50 (huNav1.7α+β1-β2-β3): 5.5 nM

B9: F010301328 (VHH)
VHH: EVQLVESGGGLVQAGGSLRLSCDASGRILRIGYMRWHRQGAGKQREFVARITDDSAVDYADSVKGRFTISRDNAKNTVYLQMNNLNPEDTAVYYCEALVTASVRGGSIHSGTYWGRGTLVTVSS
notes: vs 387G05: T57V
EC50 (huNav1.7α+β1-β2-β3): 5 nM

B10: F010301335 (VHH)
VHH: EVQLVESGGGLVQAGGSLRLSCDASGRILRIGYMRWHRQGAGKQREFVAVITDDSATDYADSVKGRFTISRDNAKNTVYLQMNNLNPEDTAVYYCEALVTASVRGGSIHSGTYWGRGTLVTVSS
notes: vs 387G05: R50V
EC50 (huNav1.7α+β1-β2-β3): 7.9 nM

B11: F010301360 (VHH)
VHH: EVQLVESGGGLVQAGGSLRLSCDASGRILRIGYMRWHRQGAGKQREFVARITDDSTTDYADSVKGRFTISRDNAKNTVYLQMNNLNPEDTAVYYCEALVTASVRGGSIHSGTYWGRGTLVTVSS
notes: vs 387G05: A56T
EC50 (huNav1.7α+β1-β2-β3): 5.2 nM

B12: F010301387 (VHH)
VHH: EVQLVESGGGLVQAGGSLRLSCDASGRILRIGYMRWHRQGAGKQREFVARITDDSATDYADSVKGRFTISRDNAKNTVYLQMNNLNPEDTAVYYCEALVTASARGGSIHSGTYWGRGTLVTVSS
notes: vs 387G05: V100A
EC50 (huNav1.7α+β1-β2-β3): 5.2 nM

B13: F010301409 (VHH)
VHH: EVQLVESGGGLVQAGGSLRLSCDASGRILRIGYMRWHRQGAGKQREFVARITDDSATDYADSVKGRFTISRDNAKNTVYLQMNNLNPEDTAVYYCEALVTASVRGGSIVSGTYWGRGTLVTVSS
notes: vs 387G05: H100fV
EC50 (huNav1.7α+β1-β2-β3): 5.1 nM

B14: F010301416 (VHH)
VHH: EVQLVESGGGLVQAGGSLRLSCDASGRILRIGYMRWHRQGAGKQREFVARITDDSATDYADSVKGRFTISRDNAKNTVYLQMNNLNPEDTAVYYCEALVTASVRGGSIHSGQYWGRGTLVTVSS
notes: vs 387G05: T101Q
binding result (huNav1.7α+β1-β2-β3): no binding

B15: F010301418 (VHH)
VHH: EVQLVESGGGLVQAGGSLRLSCDASGRILRIGYMRWHRQGAGKQREFVARITDDSATDYADSVKGRFTISRDNAKNTVYLQMNNLNPEDTAVYYCEALVTASVRGGSIHSGTWWGRGTLVTVSS
notes: vs 387G05: Y102W
EC50 (huNav1.7α+β1-β2-β3): 4.9 nM

B16: F010301425 (VHH)
VHH: EVQLVESGGGLVQAGGSLRLSCDASGRILRIGYMRWHRQGAGKQREFVARITDDSATDYADSVKGRFTISRDNAKNTVYLQMNNLNPEDTAVYYCEALVTASVRVGSIHSGTYWGRGTLVTVSS
notes: vs 387G05: G100bV
EC50 (huNav1.7α+β1-β2-β3): 15 nM

B17: F010301440 (VHH)
VHH: EVQLVESGGGLVQAGGSLRLSCDASGRILRIGYMRWHRQGAGKQREFVARITDDSATDYADSVKGRFTISRDNAKNTVYLQMNNLNPEDTAVYYCEALVTASVRGGSIHSTTYWGRGTLVTVSS
notes: vs 387G05: G100hT
EC50 (huNav1.7α+β1-β2-β3): 5.7 nM

B18: F010301618 (VHH)
VHH: EVQLVESGGGLVQAGGSLRLSCAASVRPFSTSAMGWFRQAPEKEREAVAGILWNGIVTYYADSVKGRFTISRDNAKNEVYLQMNKLKPEDTAVYYCALDRDYGGRSFSAYEYEHWGQGTLVTVSS
notes: Y102H vs F0103362B08 (Kabat)
EC50 (huNav1.7α + β1 (HEKa/β1)): 39 nM | EC50 (huNav1.7α + β1-β2-β3 [2]): 190 nM

B19: F010301619 (VHH)
VHH: EVQLVESGGGLVQAGGSLRLSCAASVRPFSTSAMGWFRQAPEKEREAVAGILWNGIVTYYADSVKGRFTISRDNAKNEVYLQMNKLKPEDTAVYYCALDRDYGGRSKSAYEYEYWGQGTLVTVSS
notes: F100cK vs F0103362B08 (Kabat)
EC50 (huNav1.7α + β1 (HEKa/β1)): 47 nM | EC50 (huNav1.7α + β1-β2-β3 [2]): 180 nM

B20: F010301621 (VHH)
VHH: EVQLVESGGGLVQAGGSLRLSCAASVRPFSTSAMGWFRQAPEKEREAVAGILWNGIVTYYADSVKGRFTISRDNAKNEVYLQMNKLKPEDTAVYYCALDRDYGGRSFSAGEYEYWGQGTLVTVSS
notes: Y100fG vs F0103362B08 (Kabat)
EC50 (huNav1.7α + β1 (HEKa/β1)): 34 nM | EC50 (huNav1.7α + β1-β2-β3 [2]): 150 nM

B21: F010301622 (VHH)
VHH: EVQLVESGGGLVQAGGSLRLSCAASVRPFSTSAMGWFRQAPEKEREAVAGILWNGIVTYYADSVKGRFTISRDNAKNEVYLQMNKLKPEDTAVYYCALDRDYGGRSFSADEYEYWGQGTLVTVSS
notes: Y100fD vs F0103362B08 (Kabat)
EC50 (huNav1.7α + β1 (HEKa/β1)): 40 nM | EC50 (huNav1.7α + β1-β2-β3 [2]): 170 nM

B22: F010301627 (VHH)
VHH: EVQLVESGGGLVQAGGSLRLSCAASVRPFSTSAMGWFRQAPEKEREAVAAILWNGIVTYYADSVKGRFTISRDNAKNEVYLQMNKLKPEDTAVYYCALDRDYGGRSFSAYEYEYWGQGTLVTVSS
notes: G50A vs F0103362B08 (Kabat)
EC50 (huNav1.7α + β1 (HEKa/β1)): 23 nM | EC50 (huNav1.7α + β1-β2-β3 [2]): 76 nM

B23: F010301629 (VHH)
VHH: EVQLVESGGGLVQAGGSLRLSCAASVRPFSTSAMGWFRQAPEKEREAVASILWNGIVTYYADSVKGRFTISRDNAKNEVYLQMNKLKPEDTAVYYCALDRDYGGRSFSAYEYEYWGQGTLVTVSS
notes: G50S vs F0103362B08 (Kabat)
EC50 (huNav1.7α + β1 (HEKa/β1)): 42 nM | EC50 (huNav1.7α + β1-β2-β3 [2]): 120 nM
